The target of the assay is MART-1 presented by HLA-A*0201 on 624 mel-CIITA cells (human). The assay is described as follows: cell-based or functional assay.

The substance F5 (anti-MART-1) TCR registered an IFN-gamma (pg/ml); Donor 1; 624-CIITA of 1480 pg/mL and an IFN-gamma (pg/ml); Donor 2; 624-CIITA of 1440 pg/mL.

(Values after patent US20150246959A1.)
